Read-outs that look alike come from different tables or passages of the source.
Legend:
Assay in all cases: radioligand binding
[1] = target: self-assembling peptide AcN-(KLDL)3-CNH2
[2] = target: self-assembling peptide AcN-(KLDL)3-CNH2; remark: listed apart in the source
[3] = target: self-assembling peptide AcN-(KLDL)3-CNH2; remark: listed apart in the source

- percent of loaded released (cumulative), day 21 [1]: 44%
- percent of loaded retained in the hydrogel, day 21 [1]: 56%
- uptake ratio (concentration in gel / concentration in bath) [2]: 85.8
- percent of loaded released (cumulative), day 3 [3]: 13 to 16%
- percent of loaded released (cumulative), day 7 [3]: 25%
- percent of loaded released (cumulative), day 14 [3]: 27%
- percent of loaded released (cumulative), day 21 [3]: 32%
- percent of loaded retained in the hydrogel, day 21 [3]: 68%
- uptake ratio (concentration in gel / concentration in bath) [3]: 18.5
Substance: ^125I-TGF-β1 (radiolabelled transforming growth factor β1) (ligand)
